Target: Spi-1 transcription factor, expressed in cells
Experiment: cell-based or functional assay

Substance: IE2 291-364 expressed in cells from pCDNA 3.1/V5-His IE2 291-364 (peptide)
- inhibition of IL-1β promoter luciferase reporter in LPS-treated RAW 264.7 cells: 50%
- maximum inhibition of the 3.8 kbp complete IL1B regulatory region luciferase reporter in LPS-treated RAW264.7 cells: 50 to 75%

From US20070265201A1, “INHIBITORS OF IN[…] TRA[…] FROM HCMV PROTEIN IE2” (priority 2005, published 2007)
